Measurements taken from paper PMC10897489.
pKd: −log10 of the molar value.

Experiments:
Assay in all cases: ITC
[1] = target: GST-NSP3 1-181 (SARS-CoV-2)
[2] = target: His-NSP3 1-181 WT (SARS-CoV-2)
FXR1 215-360 = FXR1 215-360 (UniProt P51114); conditions: reference: unphosphorylated UBAP2L 243-270 peptide
FXR1 215-360 (human) = target: FXR1 215-360 (human)

FXR1 215-360 (domain or fragment)
pKd [1]: 5.65 | stoichiometry N [1]: 0.9 | pKd [2]: 5.54

UBAP2L 243-270 (from UniProt Q14157) pS254 peptide
binding against the reference (FXR1 215-360; sites S254): lost

UBAP2L 243-270 (from UniProt Q14157) pS262 peptide
binding against the reference (FXR1 215-360; sites S262): lost

UBAP2L 243-270 (from UniProt Q14157) pT246 peptide
KD (FXR1 215-360; sites T246): stronger; reference 8.5

UBAP2L 243-270 peptide (from UniProt F8W726 243-270)
pKd (FXR1 215-360 (human)): 5.07 | stoichiometry N (FXR1 215-360 (human)): 0.96

UBAP2L 243-270 peptide, phosphorylated on Ser254 (from UniProt F8W726 243-270)
pKd (FXR1 215-360 (human)): 4.59 | stoichiometry N (FXR1 215-360 (human)): 0.92

UBAP2L 243-270 peptide, phosphorylated on Thr246 (from UniProt F8W726 243-270)
pKd (FXR1 215-360 (human)): 5.44 | stoichiometry N (FXR1 215-360 (human)): 0.9
